Test results taken from patent publication US20230052256A1 (DIZAL JIANGSU PHARMACEUTICAL, published 2023).

T1: recombinant human FGFR1b-Fc (R&D Systems) (human, UniProt P11362-19 22-376, limits assumed)
T1 construct: Bought from R&D Systems; also called hFGFR1b-Fc; not shown: human Fc of the bought fusion protein
T1 sequence (looked up): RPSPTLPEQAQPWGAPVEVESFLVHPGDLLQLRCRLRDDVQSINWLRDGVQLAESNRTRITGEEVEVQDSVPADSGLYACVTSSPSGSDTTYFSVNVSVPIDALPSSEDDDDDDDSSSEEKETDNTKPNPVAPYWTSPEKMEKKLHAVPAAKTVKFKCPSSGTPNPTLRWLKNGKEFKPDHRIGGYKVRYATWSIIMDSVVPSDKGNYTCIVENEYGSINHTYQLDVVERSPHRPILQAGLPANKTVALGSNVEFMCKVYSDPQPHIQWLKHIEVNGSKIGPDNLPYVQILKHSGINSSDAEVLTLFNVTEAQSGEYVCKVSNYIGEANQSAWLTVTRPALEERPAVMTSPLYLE

T2: human FGFR2b ECD fused with murine Fc (human)
T2 construct: The ELISA text says only 'recombinant human FGFR2b-Fc'; also called recombinant human FGFR2b-Fc; hu FGFR2b
T2 chain: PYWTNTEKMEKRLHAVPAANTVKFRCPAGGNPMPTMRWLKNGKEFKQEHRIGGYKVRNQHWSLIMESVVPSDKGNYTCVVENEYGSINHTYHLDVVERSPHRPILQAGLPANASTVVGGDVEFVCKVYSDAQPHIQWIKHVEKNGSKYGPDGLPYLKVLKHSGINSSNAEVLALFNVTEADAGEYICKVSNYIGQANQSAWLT

T3: recombinant human FGFR3b-Fc (R&D Systems) (human, UniProt P22607-2 23-377)
T3 construct: Bought from R&D Systems; not shown: human Fc of the bought fusion protein
T3 sequence (looked up): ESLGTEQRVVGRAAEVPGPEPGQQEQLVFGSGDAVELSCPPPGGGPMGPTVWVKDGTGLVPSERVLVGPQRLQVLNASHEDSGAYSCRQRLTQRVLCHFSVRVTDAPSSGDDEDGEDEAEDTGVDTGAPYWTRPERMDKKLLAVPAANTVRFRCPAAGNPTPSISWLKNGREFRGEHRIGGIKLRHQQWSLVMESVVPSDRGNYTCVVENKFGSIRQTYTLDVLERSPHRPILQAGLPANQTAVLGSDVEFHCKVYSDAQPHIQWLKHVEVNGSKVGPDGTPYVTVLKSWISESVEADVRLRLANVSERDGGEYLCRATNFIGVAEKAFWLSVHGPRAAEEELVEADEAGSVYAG

T4: recombinant human FGFR4-Fc (R&D Systems) (human, UniProt P22455 22-369)
T4 construct: Bought from R&D Systems; not shown: human Fc of the bought fusion protein
T4 sequence (looked up): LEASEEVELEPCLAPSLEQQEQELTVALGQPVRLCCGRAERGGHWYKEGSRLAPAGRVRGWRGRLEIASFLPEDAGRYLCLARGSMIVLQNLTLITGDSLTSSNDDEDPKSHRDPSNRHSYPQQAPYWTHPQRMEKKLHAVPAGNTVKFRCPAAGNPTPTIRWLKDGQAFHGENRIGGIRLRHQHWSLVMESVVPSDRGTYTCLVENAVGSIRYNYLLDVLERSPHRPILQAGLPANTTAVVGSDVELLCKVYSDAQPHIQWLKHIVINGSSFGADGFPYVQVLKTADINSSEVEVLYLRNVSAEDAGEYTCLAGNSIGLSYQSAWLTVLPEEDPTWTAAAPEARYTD


Experiments:
[1] = biological target: T1, recombinant human FGFR1b-Fc (R&D …); test: SPR (Biacore T200), hFGFR1b-Fc amine-coupled to a CM5 chip, antibody injected at 0-200 nM
Method: (§1) The binding of antibodies to human FGFR2b or human FGFR1b antigen was determined by surface plasmon resonance (Biacore). Briefly, CM5 sensor chip (GE Healthcare Life Sciences) was firstly activated by a 4 min injection of 1:1 freshly mixture of 50 mM N-hydroxysuccinamide (NHS): 200 mM EDC […]. Then hFGFR2b-Fc or hFGFR1b-Fc was immobilized to activated CM5 sensor chip using Amine Coupling Kit (GE Healthcare Life Sciences) and 1M ethanolamine as the blocking reagent. About 20-30 response units (RU, 1 RU represents the binding of 1 pg of protein per square mm) of antigen protein were captured.
(§2) Antibodies were diluted in HBS-EP+ running buffer (GE Healthcare Life Sciences) (10 mM HEPES, 150 mM NaCl, 3 mM EDTA, 0.05% surfactant P20, pH 7.4) and injected at serial concentration (0, 6.25, 12.5, 25, 50, 100, 150, 200 nM) and surface regeneration of the CM5 sensor chip were included in each running cycle. The association constant, dissociation constant were calculated with Biacore T200 evaluation software (version 1.0). […] In addition, Ab 26c is distinguished from the antibody FPA144 in terms of FGFR1b binding.

[2] = biological target: T5, cynomolgus FGFR2b-Fc (ECD fused to murine Fc) (cynomolgus monkey); test: ELISA, plate coated with cynomolgus FGFR2b-Fc, anti-human IgG HRP
T5 construct: also called recombinant cynomolgus FGFR2b-Fc; cyno FGFR2b
Method: (§3) The cross-species binding of Ab 26c to recombinant cyno, rat/mouse, and human FGFR2b-Fc fusion proteins was conducted with ELISA. In brief, 96-well ELISA plate were coated with about 100 μl/well 0.1 μg/ml recombinant human FGFR2b-Fc, recombinant rat/mouse FGFR2b-Fc, or recombinant cynomolgus FGFR2b-Fc protein in PBS overnight. Then the plate was blocked with 2% BSA in PBS with 0.05% Tween20 and incubation with antibody samples for 60 min at room temperature, and then washed twice in 1×TBST (Cell Signaling Technology, #9997) and followed by incubation with anti-human IgG HRP conjugate for 60 min at a room temperature. HRP activity was detected with tetra-methylbenzidine substrate (Cell Signaling Technology, #7004) and the reaction was stopped with stop solution (Cell Signaling Technology, #7002). The plate was read at 450 nm. […] Ab 26c has the highest binding affinity to rat/mouse FGFR2b, followed by human FGFR2b, and then cynomolgus FGFR2b.

[3] = biological target: T6, human FGFR2b (beta)-Fc, human Fc fusion (human); test: SPR (Biacore T200), hFGFR2b-Fc amine-coupled to a CM5 chip, antibody injected at 0-200 nM
T6 construct: range 65-267; Made in 293F cells; The Biacore and Ab 26 ELISA text says only 'hFGFR2b-Fc' or 'FGFR2b'; also called hFGFR2b-Fc; human FGFR2b-Fc
Method: as §1, §2

[4] = biological target: T7, human FGFR2b, endogenous, on KATOIII gastric cancer cells (human, UniProt P21802-3 22-822); test: flow cytometry on KATOIII cells
T7 construct: whole, on cells; also called FGFR2b on KATOIII cells
T7 sequence (P21802 other isoform, or with tags, fused parts or gaps): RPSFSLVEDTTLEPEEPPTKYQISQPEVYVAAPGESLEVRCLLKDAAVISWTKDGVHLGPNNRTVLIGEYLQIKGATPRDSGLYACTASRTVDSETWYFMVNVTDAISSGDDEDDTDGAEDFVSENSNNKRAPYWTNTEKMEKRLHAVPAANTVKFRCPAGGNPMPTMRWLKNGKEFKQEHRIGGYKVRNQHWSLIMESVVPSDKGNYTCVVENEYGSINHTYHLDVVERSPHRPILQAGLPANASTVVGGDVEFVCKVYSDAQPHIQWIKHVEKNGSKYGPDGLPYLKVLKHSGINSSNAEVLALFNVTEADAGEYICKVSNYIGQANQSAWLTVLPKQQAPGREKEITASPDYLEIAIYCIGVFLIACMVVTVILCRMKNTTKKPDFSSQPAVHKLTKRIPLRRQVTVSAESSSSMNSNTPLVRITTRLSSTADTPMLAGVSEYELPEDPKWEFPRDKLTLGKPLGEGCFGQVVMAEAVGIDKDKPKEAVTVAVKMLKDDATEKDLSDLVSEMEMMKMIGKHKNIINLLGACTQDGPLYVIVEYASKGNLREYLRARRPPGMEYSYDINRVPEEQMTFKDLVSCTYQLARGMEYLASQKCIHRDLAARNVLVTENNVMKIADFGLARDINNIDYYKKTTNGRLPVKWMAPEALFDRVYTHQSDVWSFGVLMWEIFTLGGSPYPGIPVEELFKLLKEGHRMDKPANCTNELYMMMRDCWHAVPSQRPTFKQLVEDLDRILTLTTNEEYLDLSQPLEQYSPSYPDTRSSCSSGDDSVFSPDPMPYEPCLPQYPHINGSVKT
Method: To confirm that the selected antibodies can bind to the endogenous forms of FGFR2b on the cell membrane, flow cytometry was performed using FGFR2b expressing KATOIII cells. All antibodies were prepared in PBS buffer with 10% donkey serum (Jackson Immunogen #017-000-121). 500,000 KATOIII cells were incubated with […] of different concentration of anti-FGFR2b antibody for 60 min at 4° C. Cells were washed twice and incubated in 100 μl of 10 μg/ml of 2nd IgG-Alexa488 antibody (Jackson Immunogen #709546149) for 30 minutes at 4° C. in the dark. Cells were washed three times and resuspended with wash buffer and analyzed on a flow cytometer.

[5] = biological target: T1, recombinant human FGFR1b-Fc (R&D …); test: SPR (Biacore T200), hFGFR1b-Fc amine-coupled to CM5 chip, antibody injected
Method: as §1, §2

[6] = biological target: T6, human FGFR2b (beta)-Fc, human Fc fusion; test: SPR (Biacore T200), hFGFR2b-Fc amine-coupled to CM5 chip, antibody injected
Method: as §1, §2

[7] = biological target: T7, human FGFR2b, endogenous, on KATOIII …; test: cell-based or functional assay
[8] = biological target: T8, rat/mouse FGFR2b ECD fused with murine Fc (rat); test: ELISA, plate coated with rat/mouse FGFR2b-Fc, anti-human IgG HRP
T8 construct: also called recombinant rat/mouse FGFR2b-Fc; rat FGFR2b
Method: as §3

[9] = biological target: T2, human FGFR2b ECD fused with murine Fc; test: ELISA, plate coated with human FGFR2b-Fc, anti-human IgG HRP
Method: as §3

[10] = biological target: T3, recombinant human FGFR3b-Fc (R&D …); test: ELISA on HuFGFR3b
[11] = biological target: T6, human FGFR2b (beta)-Fc, human Fc fusion; test: ELISA on HuFGFR2b
[12] = biological target: T1, recombinant human FGFR1b-Fc (R&D …); test: ELISA on HuFGFR1b
[13] = biological target: T4, recombinant human FGFR4-Fc (R&D Systems); test: ELISA on HuFGFR4

| koff [1] [s⁻¹] | kon [1] [M⁻¹ s⁻¹] | EC50 (read off the curve) [2] [pM] | koff [3] [s⁻¹] | kon [3] [M⁻¹ s⁻¹] | EC50 [4] [pM] | Kd [5] [pM] | Kd [6] [pM] | ADCC EC50, KATOIII target cells with human NK effector cells (E/T 8:1) [7] [µg/mL] | EC50 (read off the curve) [8] [pM] | EC50 (read off the curve) [9] [pM] | EC50 (read off the curve) [11] [pM] | EC50 (read off the curve) [12] [pM] | Binder | binding result [10] | binding result [13] |
| --- | --- | --- | --- | --- | --- | --- | --- | --- | --- | --- | --- | --- | --- | --- | --- |
| 0.000552 | 172000 | ~600 | 0.00017 | 101000 | ~3000 | 3210 | 1680 | 0.034 | ~200 | ~200 | – | – | Ab 26c (chimeric antibody based on Ab 26) (antibody, V domains shown, Mouse VH and VL fused to a human heavy chain constant region and a human light chain constant region; also called chimeric Ab26c) VH: DVHLQESGPGLVKPSQSLSLTCSVTGYSITSGYYWNWIRQFPGNKLEWMGYITYDGSNNYNPSLKNRLSITRDTSKNQFFLQLSSLTTEDTATYFCARVYYYGSGNFDVWGTGTTVTVSS VL: SIVMTQTPKILLVSAGDRVTITCKASQSVSNDVAWYQQKPGQSPKLLIYYASNRYTGVPDRFTGSGYGTDFTFTISTVQAEDLAVYFCHQDHTSPFTFGSGTKLEIK | – | – |
| – | – | – | – | – | – | – | – | – | – | – | ~80 | ~100 | Ab 26 (mouse monoclonal antibody) (antibody, V domains shown, Mouse hybridoma antibody; also called mouse Ab 26) VH: DVHLQESGPGLVKPSQSLSLTCSVTGYSITSGYYWNWIRQFPGNKLEWMGYITYDGSNNYNPSLKNRLSITRDTSKNQFFLQLSSLTTEDTATYFCARVYYYGSGNFDVWGTGTTVTVSS VL: SIVMTQTPKILLVSAGDRVTITCKASQSVSNDVAWYQQKPGQSPKLLIYYASNRYTGVPDRFTGSGYGTDFTFTISTVQAEDLAVYFCHQDHTSPFTFGSGTKLEIK | no binding (tested: about 10^-7.3 M (about 5e-8 M)) | no binding (tested: about 10^-7.3 M (about 5e-8 M)) |
